{"source": "patent US20010025379A1", "assay_in_all_cases": "yeast two-hybrid, liquid β-galactosidase quantification", "key": {"[1]": {"molecular_target": "Cdc2a in the GAL4 DNA-binding domain vector (yeast two-hybrid fusion) (Arabidopsis thaliana)"}, "[2]": {"molecular_target": "cycA2;2 in the GAL4 DNA-binding domain vector (yeast two-hybrid fusion) (Arabidopsis thaliana)"}, "[3]": {"molecular_target": "PCNAAt in the GAL4 DNA-binding domain vector (yeast two-hybrid fusion) (Arabidopsis thaliana)"}, "[4]": {"molecular_target": "Cdc2b in the GAL4 DNA-binding domain vector (yeast two-hybrid fusion) (Arabidopsis thaliana)"}, "[5]": {"molecular_target": "cycD2;1 in the GAL4 DNA-binding domain vector (yeast two-hybrid fusion) (Arabidopsis thaliana)"}, "[6]": {"molecular_target": "cycB2;2 in the GAL4 DNA-binding domain vector (yeast two-hybrid fusion) (Arabidopsis thaliana)"}, "[7]": {"molecular_target": "DB-vector alone (GAL4 DNA-binding domain without insert), control (UniProt P04386)"}, "[8]": {"molecular_target": "cycB1;1 in the GAL4 DNA-binding domain vector (yeast two-hybrid fusion) (Arabidopsis thaliana)"}, "[9]": {"molecular_target": "cycD3;1 in the GAL4 DNA-binding domain vector (yeast two-hybrid fusion / bait) (Arabidopsis thaliana)"}, "[10]": {"molecular_target": "cycD1;1 in the GAL4 DNA-binding domain vector (yeast two-hybrid fusion) (Arabidopsis thaliana)"}, "[11]": {"molecular_target": "ATMAP2 in the GAL4 DNA-binding domain vector (yeast two-hybrid fusion) (Arabidopsis thaliana)"}}}
{"substance": "ICK1 in a GAL4-activation domain vector (yeast two-hybrid fusion) (from UniProt P04386 768-881)", "values": [{"measurement": "Quantification", "setting": "[1]", "result": 2.65}, {"measurement": "Quantification", "setting": "[2]", "result": 0.03}, {"measurement": "Quantification", "setting": "[3]", "result": 0}, {"measurement": "Quantification", "setting": "[4]", "result": 0}, {"measurement": "Quantification", "setting": "[5]", "result": 14.8}, {"measurement": "Quantification", "setting": "[6]", "result": 0.05}, {"measurement": "Quantification", "setting": "[7]", "result": 0}, {"measurement": "Quantification", "setting": "[8]", "result": 0.06}, {"measurement": "Quantification", "setting": "[9]", "result": 22.7}, {"measurement": "Quantification", "setting": "[10]", "result": 3.13}, {"measurement": "Quantification", "setting": "[11]", "result": 0}]}
